Experimental data: patent US20190375839A1 (JIANGSU HENGRUI MEDICINE, published 2019)
Positions count from the first letter of the chain named. Names may count otherwise. Each block holds one binder with its values, some of them ahead of it.

Experiments:
[1] = molecular target: T1, human TIM-3 full length, overexpressed on CHO-S cells (human, UniProt Q8TDQ0 22-301); experiment: cell-based ELISA on fixed CHO-S cells overexpressing human TIM-3;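 further: antibody binding at serial dilutions to PFA-fixed cells for 1 h at 37 °C, read as TMB colour signal after acid stop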
T1 construct: cells fixed with 4% PFA on plates; also called HAVCR2; Tim-3-overexpressing CHO-S cells
Protocol: (§1) The binding activity of anti-TIM-3 antibody to CHO-S cells overexpressing human TIM-3 is detected via a binding assay. […] TIM-3-overexpressing cells were immobilized on a 96-well plate. After the addition of the antibody, signal strength was used to determine the binding activity of the antibody to Tim-3-overexpressing CHO-S cells.
(§2) The cells were inoculated on a 96-well plate with 4E5/ml density, 100 μg/well, and cultured overnight. Supernatant was discarded and the plate was washed three times with PBS. 100 μl/well of 4% PFA was added into each well, and the plate was fixed at room temperature for 30 minutes. The plate was washed three times with PBS. The liquid was discarded, and 200 μl of blocking solution (5% skim milk (Guangming skim milk powder) diluted with PBS) was added to each well. The plate was incubated at 37° C. for 2.5 h. Then the blocking solution was discarded, and the plate was washed 5 times with PBST buffer (pH 7.4 PBS containing 0.05% Tween-20). 50 μl/well of various concentrations of antibodies to be tested (antibody via hybridoma purification or humanized antibody), diluted with sample buffer, were added into each well, and incubated at 37° C. for 1 h. […] The plate was washed 6 times with PBST, and 100 μl/well TMB chromogenic substrates (KPL, Cat, No., 52-00-03) was added to each well. The plate was incubated at room temperature for 5-15 min. Reaction was stopped by the addition of 50 μl of 1 M H₂SO₄ to each well.

[2] = molecular target: T2, Extracellular domain of TIM-3 with Flag and His tag (human); experiment: Biacore SPR; antibody captured by anti-human capture antibody on CM5, TIM-3-Flag-His in mobile phase
T2 construct: also called TIM-3-Flag-His
Description: The reaction signal was detected in real-time using Biacore instrument to obtain the association and dissociation curves. […] In the experiment, after each cycle of dissociation was finished, the biosensor chip was washed with the regenerative solution in the human capture antibody Kit.

[3] = molecular target: T1, human TIM-3 full length, overexpressed …; experiment: cell-based ELISA on CHO-S cells overexpressing human TIM-3
Protocol: as §1, §2

[4] = molecular target: T2, Extracellular domain of TIM-3 with Flag …; experiment: Biacore SPR; antibody as stationary phase, 'TIM-3-His' as mobile phase

B2: Ch1799 (antibody, human IgG4 S228P, kappa, V domains shown)
VH: EVKLVESEGGLVQPGSSMKLSCTASGFTFSDYYMAWVRQVPEKGLEWVANINYDGSSTYYLDSLKSRFIISRDNAKNILYLQMNSLKSDDTATYYCARDVGYYGGNYGFAYWGQGTLVTVSA
VL: DIQMTQSPASLSASVGETVTITCRASDNIYSYLAWYQQKQGKSPQLLVYNAKTLAEGVPSRFSGSGSGTQFSLKINSLQPEDFGSYYCQQHYGSPLTFGAGTKLELKR
EC50 [1]: 80 pM | Kd [2]: 1760 pM

B3: h1701-005 (antibody, human IgG4 S228P, kappa, V domains shown)
VH: QVQLVQSGAEVKKPGASVKVSCKASGYTFTDYYMNWVRQAPGQGLEWMGDIIPNNGGSKYNQKFKDRVTMTTDTSTSTAYMELRSLRSDDTAVYYCARWGYGSSYRWFDYWGQGTLVTVSS
VL: DIQMTQSPSSLSASVGDRVTITCLASQPIGIWLAWYQQKPGKAPKLLIYAATSLADGVPSRFSGSGSGTDFTFTISSLQPEDIATYYCQQLYSSPWTFGGGTKVEIKR
notes: Humanized IgG4 (S228P)/kappa
EC50 [1]: 602 pM

B4: h1701-009NHG (antibody, human IgG4 S228P, kappa, V domains shown)
VH: B3 VH with N55H, R98T
VL: B3 VL
notes: HCDR2 point-mutation variant of h1701-009 (NNG to NHG); IgG4 (S228P)/kappa
EC50 [3]: 317 pM | Kd [4]: 640 pM

B8: h1701-011 (antibody, human IgG4 S228P, kappa, V domains shown)
VH: B3 VH with M48I, R98T
VL: B3 VL
notes: Humanized IgG4 (S228P)/kappa
EC50 [1]: 188 pM

B12: h1701-009NHA (antibody, human IgG4 S228P, kappa, V domains shown)
VH: B3 VH with N55H, G56A, R98T
VL: B3 VL
notes: HCDR2 point-mutation variant of h1701-009 (NNG to NHA); IgG4 (S228P)/kappa
EC50 [3]: 530 pM | Kd [4]: 597 pM

B16: h1701-013 (antibody, human IgG4 S228P, kappa, V domains shown)
VH: B3 VH with R38K, M48I, D89E, R98T
VL: B3 VL
notes: Humanized IgG4 (S228P)/kappa
EC50 [1]: 199 pM

B17: h1701-018 (antibody, human IgG4 S228P, kappa, V domains shown)
VH: B3 VH with R38K, M48I, G49A, V68A, M70L, D89E, R98T
VL: B3 VL with A43S
notes: Humanized IgG4 (S228P)/kappa
EC50 [1]: 87 pM

B22: h1701-009NMA (antibody, human IgG4 S228P, kappa, V domains shown)
VH: B3 VH with N55M, G56A, R98T
VL: B3 VL
notes: HCDR2 point-mutation variant of h1701-009 (NNG to NMA); IgG4 (S228P)/kappa
EC50 [3]: 629 pM | Kd [4]: 653 pM

B23: h1701-009NNA (antibody, human IgG4 S228P, kappa, V domains shown)
VH: B3 VH with G56A, R98T
VL: B3 VL
notes: HCDR2 point-mutation variant of h1701-009 (NNG to NNA); IgG4 (S228P)/kappa
EC50 [3]: 515 pM | Kd [4]: 569 pM

B24: h1701-008 (antibody, human IgG4 S228P, kappa, V domains shown)
VH: B3 VH with M48I
VL: B3 VL with A43S
notes: Humanized IgG4 (S228P)/kappa
EC50 [1]: 2420 pM

B25: h1701-014 (antibody, human IgG4 S228P, kappa, V domains shown)
VH: B3 VH with R38K, M48I, D89E, R98T
VL: B3 VL with A43S
notes: Humanized IgG4 (S228P)/kappa
EC50 [1]: 124 pM

B27: h1799-012 (antibody, human IgG4 S228P, kappa)
heavy: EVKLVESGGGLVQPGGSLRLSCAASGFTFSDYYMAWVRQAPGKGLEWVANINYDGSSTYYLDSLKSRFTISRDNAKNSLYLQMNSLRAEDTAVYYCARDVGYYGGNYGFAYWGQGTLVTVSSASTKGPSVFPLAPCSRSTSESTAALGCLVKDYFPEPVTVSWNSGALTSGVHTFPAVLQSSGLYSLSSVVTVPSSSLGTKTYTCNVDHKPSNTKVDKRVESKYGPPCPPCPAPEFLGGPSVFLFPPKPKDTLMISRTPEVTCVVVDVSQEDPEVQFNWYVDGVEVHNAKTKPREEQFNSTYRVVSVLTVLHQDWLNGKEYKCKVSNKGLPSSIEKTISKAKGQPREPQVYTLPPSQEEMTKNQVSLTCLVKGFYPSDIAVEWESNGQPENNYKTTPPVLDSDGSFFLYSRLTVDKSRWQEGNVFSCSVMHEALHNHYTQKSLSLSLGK
light: DIQMTQSPSSLSASVGDRVTITCRASDNIYSYLAWYQQKPGKAPQLLVYNAKTLAEGVPSRFSGSGSGTDFTLTISSLQPEDFATYYCQQHYGSPLTFGQGTKLEIKRTVAAPSVFIFPPSDEQLKSGTASVVCLLNNFYPREAKVQWKVDNALQSGNSQESVTEQDSKDSTYSLSSTLTLSKADYEKHKVYACEVTHQGLSSPVTKSFNRGEC
notes: Humanized IgG4 (S228P)/kappa
EC50 [1]: 158 pM

B29: h1799-007 (antibody, human IgG4 S228P, kappa)
heavy: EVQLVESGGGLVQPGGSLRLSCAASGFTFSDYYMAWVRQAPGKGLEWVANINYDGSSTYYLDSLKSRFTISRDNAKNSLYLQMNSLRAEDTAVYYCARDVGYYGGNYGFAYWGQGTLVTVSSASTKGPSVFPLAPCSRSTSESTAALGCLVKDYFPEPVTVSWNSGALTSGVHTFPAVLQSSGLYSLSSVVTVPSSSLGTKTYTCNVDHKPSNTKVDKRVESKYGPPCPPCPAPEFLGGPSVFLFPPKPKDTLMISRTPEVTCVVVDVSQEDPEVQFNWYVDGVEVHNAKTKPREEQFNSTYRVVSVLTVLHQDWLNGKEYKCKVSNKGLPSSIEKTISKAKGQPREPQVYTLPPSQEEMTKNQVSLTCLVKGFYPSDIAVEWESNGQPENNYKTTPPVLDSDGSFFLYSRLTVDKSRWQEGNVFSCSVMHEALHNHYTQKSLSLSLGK
light: B27 light
notes: Humanized IgG4 (S228P)/kappa
EC50 [1]: 109 pM

B30: h1799-017 (antibody, human IgG4 S228P, kappa, V domains shown)
VH: EVKLVESGGGLVQPGGSLRLSCAASGFTFSDYYMAWVRQAPGKGLEWVANINYDGSSTYYLDSLKSRFTISRDNAKNSLYLQMNSLKAEDTAVYYCARDVGYYGGNYGFAYWGQGTLVTVSS
VL: DIQMTQSPSSLSASVGDRVTITCRASDNIYSYLAWYQQKPGKAPQLLVYNAKTLAEGVPSRFSGSGSGTDFTLTISSLQPEDFATYYCQQHYGSPLTFGQGTKLEIKR
notes: Humanized IgG4 (S228P)/kappa
EC50 [1]: 194 pM

B33: h1799-013 (antibody, human IgG4 S228P, kappa)
heavy: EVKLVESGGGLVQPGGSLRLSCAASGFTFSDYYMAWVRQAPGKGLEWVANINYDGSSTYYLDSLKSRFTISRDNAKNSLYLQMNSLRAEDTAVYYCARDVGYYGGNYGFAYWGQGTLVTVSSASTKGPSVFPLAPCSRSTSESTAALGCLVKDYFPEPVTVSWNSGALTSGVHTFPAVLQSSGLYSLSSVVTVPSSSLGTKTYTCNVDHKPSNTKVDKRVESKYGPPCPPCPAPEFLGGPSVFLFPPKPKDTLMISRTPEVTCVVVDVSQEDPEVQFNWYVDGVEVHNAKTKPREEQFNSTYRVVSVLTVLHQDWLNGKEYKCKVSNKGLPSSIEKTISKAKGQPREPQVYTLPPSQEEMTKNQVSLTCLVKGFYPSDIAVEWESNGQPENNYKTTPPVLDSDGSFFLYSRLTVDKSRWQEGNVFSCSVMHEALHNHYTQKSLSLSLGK
light: B27 light with A43S
notes: Humanized IgG4 (S228P)/kappa
EC50 [1]: 139 pM

B34: h1799-014 (antibody, human IgG4 S228P, kappa)
heavy: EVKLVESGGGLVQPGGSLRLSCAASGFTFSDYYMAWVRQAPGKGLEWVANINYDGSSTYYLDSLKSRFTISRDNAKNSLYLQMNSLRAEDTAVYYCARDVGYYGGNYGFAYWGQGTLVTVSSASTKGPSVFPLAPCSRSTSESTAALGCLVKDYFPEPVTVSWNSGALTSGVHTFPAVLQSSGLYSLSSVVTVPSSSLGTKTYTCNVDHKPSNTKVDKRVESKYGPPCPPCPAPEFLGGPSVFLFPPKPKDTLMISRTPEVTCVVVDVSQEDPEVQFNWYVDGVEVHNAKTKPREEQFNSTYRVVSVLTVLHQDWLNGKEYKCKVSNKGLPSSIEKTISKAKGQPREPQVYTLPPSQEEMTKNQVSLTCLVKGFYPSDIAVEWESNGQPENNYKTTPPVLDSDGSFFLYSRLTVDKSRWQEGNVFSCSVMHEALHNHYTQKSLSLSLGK
light: B27 light with A43S, T85S
notes: Humanized IgG4 (S228P)/kappa
EC50 [1]: 116 pM

B36: h1799-008 (antibody, human IgG4 S228P, kappa)
heavy: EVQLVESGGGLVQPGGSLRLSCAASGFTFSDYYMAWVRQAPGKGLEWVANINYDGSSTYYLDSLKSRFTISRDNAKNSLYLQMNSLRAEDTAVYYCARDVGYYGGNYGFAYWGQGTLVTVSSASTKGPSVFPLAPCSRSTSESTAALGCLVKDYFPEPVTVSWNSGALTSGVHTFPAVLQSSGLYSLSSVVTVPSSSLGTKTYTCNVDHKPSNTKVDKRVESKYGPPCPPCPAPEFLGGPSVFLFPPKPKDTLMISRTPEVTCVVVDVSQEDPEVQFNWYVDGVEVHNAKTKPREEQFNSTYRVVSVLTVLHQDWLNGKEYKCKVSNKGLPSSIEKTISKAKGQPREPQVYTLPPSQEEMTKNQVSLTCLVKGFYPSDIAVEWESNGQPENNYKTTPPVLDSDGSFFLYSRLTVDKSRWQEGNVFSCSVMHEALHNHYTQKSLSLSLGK
light: B27 light with A43S
notes: Humanized IgG4 (S228P)/kappa
EC50 [1]: 67 pM

B37: h1799-011 (antibody, human IgG4 S228P, kappa)
heavy: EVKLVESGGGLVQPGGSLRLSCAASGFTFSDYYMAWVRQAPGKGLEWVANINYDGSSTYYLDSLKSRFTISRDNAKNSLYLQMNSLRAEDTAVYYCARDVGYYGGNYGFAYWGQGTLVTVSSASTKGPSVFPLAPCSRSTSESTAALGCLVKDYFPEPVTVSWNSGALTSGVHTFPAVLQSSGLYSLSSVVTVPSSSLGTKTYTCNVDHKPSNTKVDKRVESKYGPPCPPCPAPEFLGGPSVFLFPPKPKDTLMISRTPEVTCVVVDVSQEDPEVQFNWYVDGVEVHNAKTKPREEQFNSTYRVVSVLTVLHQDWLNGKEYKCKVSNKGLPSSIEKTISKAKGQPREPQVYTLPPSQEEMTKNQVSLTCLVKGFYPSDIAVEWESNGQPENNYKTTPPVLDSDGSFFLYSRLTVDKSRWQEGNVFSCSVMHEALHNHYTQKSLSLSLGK
light: B27 light with Q45K
notes: Humanized IgG4 (S228P)/kappa
EC50 [1]: 114 pM

Next, values leading:

EC50 [1]: 166 pM | Kd [2]: 1390 pM
B1: Ch1701 (antibody, human IgG4 S228P, kappa, V domains shown)
VH: EVQLQQSGPELVKPGASVKISCKASGYTFTDYYMNWVKQSHGKSLEWIADIIPNNGGSKYNQKFKDKATLTVDKSSSTAYMELRSLTSEDSAVYYCATWGYGSSYRWFDYWGQGTLVSVSA
VL: DIQMTQSPASQSASLGESVTITCLASQPIGIWLAWYQQKPGKSPQLLIYAATSLADGVPSRFSGSGSGTKFSFKISSLQAEDFVSYYCQQLYSSPWTFGGGTKLEIKR

EC50 [1]: 69 pM | Kd [2]: 2250 pM
B5: h1701-010 (antibody, human IgG4 S228P, kappa, V domains shown)
VH: B3 VH with R98T
VL: B3 VL with A43S
notes: Humanized IgG4 (S228P)/kappa

EC50 [3]: 512 pM | Kd [4]: 579 pM
B6: h1701-009NAG (antibody, human IgG4 S228P, kappa, V domains shown)
VH: B3 VH with N55A, R98T
VL: B3 VL
notes: HCDR2 point-mutation variant of h1701-009 (NNG to NAG); IgG4 (S228P)/kappa

EC50 [3]: 637 pM | Kd [4]: 640 pM
B7: h1701-009NLG (antibody, human IgG4 S228P, kappa, V domains shown)
VH: B3 VH with N55L, R98T
VL: B3 VL
notes: HCDR2 point-mutation variant of h1701-009 (NNG to NLG); IgG4 (S228P)/kappa

EC50 [3]: 673 pM | Kd [4]: 640 pM
B9: h1701-009NEG (antibody, human IgG4 S228P, kappa, V domains shown)
VH: B3 VH with N55E, R98T
VL: B3 VL
notes: HCDR2 point-mutation variant of h1701-009 (NNG to NEG); IgG4 (S228P)/kappa

EC50 [3]: 603 pM | Kd [4]: 675 pM
B10: h1701-009NMG (antibody, human IgG4 S228P, kappa, V domains shown)
VH: B3 VH with N55M, R98T
VL: B3 VL
notes: HCDR2 point-mutation variant of h1701-009 (NNG to NMG); IgG4 (S228P)/kappa

EC50 [1]: 265 pM
B11: h1701-015 (antibody, human IgG4 S228P, kappa, V domains shown)
VH: B3 VH with M48I, G49A, V68A, M70L, R98T
VL: B3 VL
notes: Humanized IgG4 (S228P)/kappa

EC50 [1]: 58 pM | Kd [2]: 1600 pM
B13: h1701-016 (antibody, human IgG4 S228P, kappa, V domains shown)
VH: B3 VH with M48I, G49A, V68A, M70L, R98T
VL: B3 VL with A43S
notes: Humanized IgG4 (S228P)/kappa

EC50 [3]: 717 pM | Kd [4]: 581 pM
B14: h1701-009NVG (antibody, human IgG4 S228P, kappa, V domains shown)
VH: B3 VH with N55V, R98T
VL: B3 VL
notes: HCDR2 point-mutation variant of h1701-009 (NNG to NVG); IgG4 (S228P)/kappa

EC50 [1]: 735 pM
B15: h1701-006 (antibody, human IgG4 S228P, kappa, V domains shown)
VH: B3 VH
VL: B3 VL with A43S
notes: Humanized IgG4 (S228P)/kappa

EC50 [3]: 438 pM | Kd [4]: 472 pM
B18: h1701-009NKG (antibody, human IgG4 S228P, kappa, V domains shown)
VH: B3 VH with N55K, R98T
VL: B3 VL
notes: HCDR2 point-mutation variant of h1701-009 (NNG to NKG); IgG4 (S228P)/kappa

EC50 [1]: 105 pM
B19: h1701-017 (antibody, human IgG4 S228P, kappa, V domains shown)
VH: B3 VH with R38K, M48I, G49A, V68A, M70L, D89E, R98T
VL: B3 VL
notes: Humanized IgG4 (S228P)/kappa

EC50 [3]: 667 pM | Kd [4]: 653 pM
B20: h1701-009NEA (antibody, human IgG4 S228P, kappa, V domains shown)
VH: B3 VH with N55E, G56A, R98T
VL: B3 VL
notes: HCDR2 point-mutation variant of h1701-009 (NNG to NEA); IgG4 (S228P)/kappa

EC50 [1]: 221 pM
B21: h1701-012 (antibody, human IgG4 S228P, kappa, V domains shown)
VH: B3 VH with M48I, R98T
VL: B3 VL with A43S
notes: Humanized IgG4 (S228P)/kappa

EC50 [1]: 63 pM | Kd [2]: 1780 pM
B26: h1799-005 (antibody, human IgG4 S228P, kappa)
heavy: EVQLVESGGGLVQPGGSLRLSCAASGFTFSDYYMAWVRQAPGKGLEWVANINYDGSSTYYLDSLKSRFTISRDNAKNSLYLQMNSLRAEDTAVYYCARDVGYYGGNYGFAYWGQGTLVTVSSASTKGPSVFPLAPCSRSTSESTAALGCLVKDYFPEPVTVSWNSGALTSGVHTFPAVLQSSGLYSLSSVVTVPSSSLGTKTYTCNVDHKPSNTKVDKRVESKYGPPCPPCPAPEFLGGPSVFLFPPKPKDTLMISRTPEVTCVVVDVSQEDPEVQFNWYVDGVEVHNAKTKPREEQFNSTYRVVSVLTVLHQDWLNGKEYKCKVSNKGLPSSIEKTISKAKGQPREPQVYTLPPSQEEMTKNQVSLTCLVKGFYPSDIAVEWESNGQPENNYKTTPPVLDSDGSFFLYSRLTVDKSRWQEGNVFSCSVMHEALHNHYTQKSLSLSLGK
light: B27 light with Q45K, V48I
notes: Humanized IgG4 (S228P)/kappa

EC50 [1]: 117 pM
B28: h1799-016 (antibody, human IgG4 S228P, kappa, V domains shown)
VH: B30 VH
VL: B30 VL with Q45K
notes: Humanized IgG4 (S228P)/kappa

EC50 [1]: 188 pM
B31: h1799-015 (antibody, human IgG4 S228P, kappa, V domains shown)
VH: B30 VH
VL: B30 VL with Q45K, V48I
notes: Humanized IgG4 (S228P)/kappa

EC50 [1]: 215 pM
B32: h1799-018 (antibody, human IgG4 S228P, kappa, V domains shown)
VH: B30 VH
VL: B30 VL with A43S
notes: Humanized IgG4 (S228P)/kappa

EC50 [1]: 119 pM
B35: h1799-019 (antibody, human IgG4 S228P, kappa, V domains shown)
VH: B30 VH
VL: B30 VL with A43S, T85S
notes: Humanized IgG4 (S228P)/kappa

EC50 [1]: 76 pM
B38: h1799-009 (antibody, human IgG4 S228P, kappa)
heavy: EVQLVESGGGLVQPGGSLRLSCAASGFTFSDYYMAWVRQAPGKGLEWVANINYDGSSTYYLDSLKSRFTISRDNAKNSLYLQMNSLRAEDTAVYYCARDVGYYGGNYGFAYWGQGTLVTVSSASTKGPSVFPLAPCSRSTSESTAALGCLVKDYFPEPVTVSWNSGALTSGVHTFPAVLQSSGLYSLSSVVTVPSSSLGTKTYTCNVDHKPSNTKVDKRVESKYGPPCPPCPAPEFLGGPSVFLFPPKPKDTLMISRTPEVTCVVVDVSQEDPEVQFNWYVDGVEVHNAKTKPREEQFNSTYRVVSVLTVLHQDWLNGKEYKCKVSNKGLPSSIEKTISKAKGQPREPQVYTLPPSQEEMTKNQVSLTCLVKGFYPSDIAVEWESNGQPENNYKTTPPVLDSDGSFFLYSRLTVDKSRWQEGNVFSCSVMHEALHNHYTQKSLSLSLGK
light: B27 light with A43S, T85S
notes: Humanized IgG4 (S228P)/kappa
